Laboratory results reported in the supplement of paper PMC9112550, “Optimization of the antimicrobial peptide Bac7 by deep mutational scanning” (BMC Biology, 2022).
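Further: peptides expressed intracellularly from a pBAD plasmid library in pooled LB shake-flask culture, induced with 0.3% L-arabinose, DNA abundance read by NGS, three biological replicates, DESeq2 with apeglm shrinkage.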

Each sequence was assayed on Escherichia coli TOP10 (assay: shrunken log2 fold change of peptide-encoding DNA abundance (4.5 h post-induction vs induction); higher = less antimicrobial activity (less host growth inhibition)). Details: time post-induction: 4.5 h; library: site-saturation at positions 5, 18, 19, 20.
RRIRHRPPRLPRPRPRPQSMPRP was tested, and the “shrunken log2 fold change” value was -0.156. In the case of RRIRARPPRLPRPRPRPIHMPRP, the “shrunken log2 fold change” value was 0.0203. RRIRTRPPRLPRPRPRPDKIPRP was tested, and the “shrunken log2 fold change” value was -0.172. RRIRLRPPRLPRPRPRPCSHPRP was tested, and the “shrunken log2 fold change” value was -0.226. In the case of RRIRERPPRLPRPRPRPACPPRP, the “shrunken log2 fold change” value was -0.0623. In the case of RRIRRRPPRLPRPRPRPNRYPRP, the “shrunken log2 fold change” value was -0.365. In the case of RRIRRRPPRLPRPRPRPNDEPRP, the “shrunken log2 fold change” value was -0.0407. With RRIRFRPPRLPRPRPRPHHCPRP the “shrunken log2 fold change” value was -0.198. With RRIRVRPPRLPRPRPRPYNSPRP the “shrunken log2 fold change” value was -0.0974. In the case of RRIRYRPPRLPRPRPRPENRPRP, the “shrunken log2 fold change” value was 0.0112. For RRIRIRPPRLPRPRPRPPKVPRP, the “shrunken log2 fold change” value was -0.0254. For RRIRERPPRLPRPRPRPGTQPRP, the “shrunken log2 fold change” value was -0.0335. For RRIRVRPPRLPRPRPRPWFPPRP, the “shrunken log2 fold change” value was -0.641. In the case of RRIRMRPPRLPRPRPRPCPIPRP, the “shrunken log2 fold change” value was -0.404. In the case of RRIRWRPPRLPRPRPRPKRMPRP, the “shrunken log2 fold change” value was 0.217. RRIRVRPPRLPRPRPRPWLCPRP was tested, and the “shrunken log2 fold change” value was -0.144. RRIRDRPPRLPRPRPRPATSPRP was tested, and the “shrunken log2 fold change” value was 0.303. With RRIRTRPPRLPRPRPRPTIEPRP the “shrunken log2 fold change” value was -0.297. For RRIRLRPPRLPRPRPRPDTYPRP, the “shrunken log2 fold change” value was -0.93. RRIRVRPPRLPRPRPRPWGIPRP was tested, and the “shrunken log2 fold change” value was -0.265. For RRIRMRPPRLPRPRPRPENFPRP, the “shrunken log2 fold change” value was 0.0515. For RRIRRRPPRLPRPRPRPTGWPRP, the “shrunken log2 fold change” value was 0.766. With RRIRNRPPRLPRPRPRPDGGPRP the “shrunken log2 fold change” value was -0.323. RRIRMRPPRLPRPRPRPLKWPRP was tested, and the “shrunken log2 fold change” value was 0.196. For RRIRFRPPRLPRPRPRPLRGPRP, the “shrunken log2 fold change” value was 0.607. With RRIRQRPPRLPRPRPRPTFTPRP the “shrunken log2 fold change” value was -0.222. With RRIRWRPPRLPRPRPRPLAMPRP the “shrunken log2 fold change” value was 0.0898. With RRIRLRPPRLPRPRPRPMRRPRP the “shrunken log2 fold change” value was 0.412. For RRIRYRPPRLPRPRPRPHRTPRP, the “shrunken log2 fold change” value was -0.527. In the case of RRIRERPPRLPRPRPRPGPQPRP, the “shrunken log2 fold change” value was 0.231. For RRIRVRPPRLPRPRPRPSPPPRP, the “shrunken log2 fold change” value was -0.0761. RRIRSRPPRLPRPRPRPPKFPRP was tested, and the “shrunken log2 fold change” value was -0.479. RRIRTRPPRLPRPRPRPLTRPRP was tested, and the “shrunken log2 fold change” value was 0.252. RRIRVRPPRLPRPRPRPPHGPRP was tested, and the “shrunken log2 fold change” value was -0.317. With RRIRCRPPRLPRPRPRPKANPRP the “shrunken log2 fold change” value was 1.15. RRIRLRPPRLPRPRPRPVHNPRP was tested, and the “shrunken log2 fold change” value was -0.281. In the case of RRIRFRPPRLPRPRPRPPWSPRP, the “shrunken log2 fold change” value was 0.204. For RRIRFRPPRLPRPRPRPCILPRP, the “shrunken log2 fold change” value was -0.0567. In the case of RRIRARPPRLPRPRPRPMLVPRP, the “shrunken log2 fold change” value was 0.291. For RRIRNRPPRLPRPRPRPTPVPRP, the “shrunken log2 fold change” value was 0.425. In the case of RRIRVRPPRLPRPRPRPEEPPRP, the “shrunken log2 fold change” value was 0.0911. With RRIRQRPPRLPRPRPRPQWAPRP the “shrunken log2 fold change” value was 0.142. In the case of RRIRHRPPRLPRPRPRPHPSPRP, the “shrunken log2 fold change” value was 0.0305. In the case of RRIRYRPPRLPRPRPRPCANPRP, the “shrunken log2 fold change” value was -0.0013. RRIRARPPRLPRPRPRPWTFPRP was tested, and the “shrunken log2 fold change” value was -0.0754. RRIRKRPPRLPRPRPRPSQDPRP was tested, and the “shrunken log2 fold change” value was 0.107. RRIRLRPPRLPRPRPRPVFRPRP was tested, and the “shrunken log2 fold change” value was 0.0694. In the case of RRIRDRPPRLPRPRPRPNPVPRP, the “shrunken log2 fold change” value was -0.41. For RRIRGRPPRLPRPRPRPVKEPRP, the “shrunken log2 fold change” value was 0.604. With RRIRMRPPRLPRPRPRPICQPRP the “shrunken log2 fold change” value was 3.43. In the case of RRIRERPPRLPRPRPRPARPPRP, the “shrunken log2 fold change” value was 0.626. With RRIRKRPPRLPRPRPRPFSDPRP the “shrunken log2 fold change” value was 0.0546. For RRIRERPPRLPRPRPRPKIEPRP, the “shrunken log2 fold change” value was -0.151. In the case of RRIRERPPRLPRPRPRPEIVPRP, the “shrunken log2 fold change” value was 0.00903. For RRIRNRPPRLPRPRPRPYQLPRP, the “shrunken log2 fold change” value was 0.327. RRIRTRPPRLPRPRPRPDHTPRP was tested, and the “shrunken log2 fold change” value was -0.145. With RRIRKRPPRLPRPRPRPCLRPRP the “shrunken log2 fold change” value was -0.081. RRIRNRPPRLPRPRPRPHPNPRP was tested, and the “shrunken log2 fold change” value was 0.0207. In the case of RRIRTRPPRLPRPRPRPTPPPRP, the “shrunken log2 fold change” value was 0.589. With RRIRRRPPRLPRPRPRPRPDPRP the “shrunken log2 fold change” value was 0.855. In the case of RRIRWRPPRLPRPRPRPTEGPRP, the “shrunken log2 fold change” value was 0.0765. RRIRWRPPRLPRPRPRPIVYPRP was tested, and the “shrunken log2 fold change” value was -0.0137. In the case of RRIRGRPPRLPRPRPRPPFCPRP, the “shrunken log2 fold change” value was 0.592. With RRIRVRPPRLPRPRPRPSQFPRP the “shrunken log2 fold change” value was -0.952. RRIRIRPPRLPRPRPRPAVTPRP was tested, and the “shrunken log2 fold change” value was -0.322. In the case of RRIRPRPPRLPRPRPRPFGQPRP, the “shrunken log2 fold change” value was -0.34. For RRIRVRPPRLPRPRPRPTFIPRP, the “shrunken log2 fold change” value was -0.166. For RRIRCRPPRLPRPRPRPHHGPRP, the “shrunken log2 fold change” value was -0.261. With RRIRIRPPRLPRPRPRPFGWPRP the “shrunken log2 fold change” value was 0.468. With RRIRRRPPRLPRPRPRPRIYPRP the “shrunken log2 fold change” value was -0.0573. With RRIRMRPPRLPRPRPRPLKVPRP the “shrunken log2 fold change” value was 0.153. In the case of RRIRPRPPRLPRPRPRPMQWPRP, the “shrunken log2 fold change” value was 0.169. RRIRMRPPRLPRPRPRPMYPPRP was tested, and the “shrunken log2 fold change” value was -0.00194. With RRIRLRPPRLPRPRPRPQFRPRP the “shrunken log2 fold change” value was -0.244. With RRIRQRPPRLPRPRPRPNCDPRP the “shrunken log2 fold change” value was 0.0233.
